From US20250325630A1, “HOMODIMER FUSION PROTEINS FOR TREATING ATOPIC DERMATITIS” (Intervet Inc., priority 2021, published 2025)

T1: canine IL-4 (cIL-4) (Canis lupus familiaris, UniProt O77762)
T1 sequence (O77762 25-132): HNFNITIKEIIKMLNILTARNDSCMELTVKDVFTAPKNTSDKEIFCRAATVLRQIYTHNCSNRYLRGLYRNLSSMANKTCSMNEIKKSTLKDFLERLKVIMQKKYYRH

T2: canine IL-13 (cIL-13) (Canis lupus familiaris, UniProt Q9N0W9)
T2 sequence (Q9N0W9 19-131): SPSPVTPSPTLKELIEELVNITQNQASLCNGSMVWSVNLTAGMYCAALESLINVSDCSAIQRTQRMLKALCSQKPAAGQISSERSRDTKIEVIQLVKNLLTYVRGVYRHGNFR


Key:
[1] = test system: cIL-13 mediated STAT6 phosphorylation; assay: Inhibition of cIL-13 mediated STAT6 phosphorylation in DH82 cells (AlphaLISA p-STAT6); type: cell-based, canine; conditions: for concentration inhibiting 50% of the cIL-13 mediated STAT6 phosphorylation (in words): DH82 cells
Description: The ability of the cFc fusion proteins to block the signaling mediated by IL-4 and IL-13, as measured by inhibition of STAT-6 phosphorylation in DH82 cells, were determined as follows:
• 1. Actively growing DH82 cells: Merck Animal Health Lot: 628-011, 24Oct14 • 2. HBSS, 1×: Corning, Catalog 21-022-CM • 3. AlphaLISA p-STAT6 (Tyr641) Assay Kit: Perkin Elmer, Catalog ALSU-PST6-A10K • 4. Recombinant canine IL-4: R&D Systems, Catalog: 752-CL/CF • 5a. cFc fusion protein samples for IL-4 studies • (i) cIL4Rα-cFc • (ii) cIL4Rα-IL13Rα1 ZW1-cFc • (iii) cIL4Rα-IL13Rα2 ZW1-cFc • 5b. cFc fusion protein samples for IL-13 studies: • (i) CIL13Rα1-cFc • (ii) cIL13Rα2-cFc • (iii) cIL4R-IL13Rα1 ZW1-cFc • (iv) cIL4R-IL13Rα2 ZW1-cFc • 6. Perkin Elmer® Envision
• 1. Tissue culture plates were seeded with […] DH82 cells per well (40 μL with the density of 2.5×10^5 cells/mL) and incubated at 37° C. for 2 hours. • 2. The cFc fusion proteins were pre-diluted to 2000 nM (500 nM final concentration in the well) and then 3-fold serially diluted in Hank's Balanced Salt Solution (HBSS). The proteins were added by transferring 20 μL/well to the respective locations on the tissue culture plates containing DH82 cells. • 3. (a) Canine IL-4 was diluted to 10 ng/ml in HBSS (2.5 ng/ml in the well) and 20 μL was added to each well of the plates. The plates were incubated for 15 min at 37° C.; or alternatively • (b) Canine IL-13 was diluted to 20 ng/ml in HBSS (5 ng/ml in the well) and 20 μL was added to each well of the plates. The plates were incubated for 15 min at 37° C. • 4. The plates were removed from the incubator and 20 μL of 4× Lysis buffer from the AlphaLISA® p-STAT-6 Assay Kit was added to each well of the plate. The plate was agitated on a plate shaker with 350 rpm for 10 minutes at room temperature. • 5. The Acceptor Mix was prepared from the AlphaLISA® p-STAT6 Assay Kit and 15 μL per well was added to 30 μL of the cell lysate in 96-well ½ Area Plates. The plates were sealed, agitated for 2 minutes at 350 rpm, and then incubated for 1 hour at room temperature. • 6. The Donor Mix was prepared from the AlphaLISA® p-STAT6 Assay kit under subdued laboratory lighting and 15 μL per well was added to each plate. The plates were sealed, covered with foil, agitated for 2 minutes at 350 rpm, and then incubated for 1 hour at room temperature. • 7. The plates were read using the AlphaScreen settings on the Perkin Elmer® En Vison.

canine IL-4 (cIL-4) = biological target: T1, canine IL-4 (cIL-4); assay: Binding kinetics of cFc fusion proteins to canine IL-4 (OCTET HTX)
Description: (§1) The binding constants for the cFc fusion proteins provided in Tables 3 and 4 below, were determined using OCTET® HTX. All kinetics measurements were performed by OCTET® HTX using SA® biosensors and DATA ACQUISITION® 12.0 software. 10 μg/mL of biotin-labeled antigen, either canine IL-4 (cIL-4) or canine IL-13 (cIL-13) were loaded onto the SAR biosensors for 120 seconds. Next, the biosensors were placed into 1×pH 7.0 TBS/Casein buffer for 60 seconds for the blocking phase. For the association phase, antigen loaded biosensors were placed into 2-fold serial dilutions from 1 μM down to 15.6 nM of the wild-type, the bispecific, or the FcRn-mutant receptor Fc-fusions that recognized the cIL-4 or cIL-13 antigen in 1×pH 7.0 TBS/Casein buffer for 30 seconds. The last well was buffer alone and that sensor was used for reference sensor subtraction. Finally, the biosensors were placed into 1×pH 7.0 TBS/Casein buffer for 120 seconds for the dissociation phase. The results were then analyzed using Data Analysis 12.0 software and the curves were fitted using a 1:1 binding model.

canine IL-13 (cIL-13) = biological target: T2, canine IL-13 (cIL-13); assay: Binding kinetics of cFc fusion proteins to canine IL-13 (OCTET HTX); conditions: Table 4, cIL-13; for ka: association rate constant; for kdis: dissociation rate constant
Description: as §1

Row | Molecule | IC50 for cIL-13 mediated STAT6 phosphorylation, fold higher than for cIL-13Rα2-cFc [1] | concentration inhibiting 50% of the cIL-13 mediated STAT6 phosphorylation (in words) [1] | loss in affinity for cIL-4 (KD times higher) relative to unmodified cIL-4Rα-cFc homodimer (canine IL-4 (cIL-4)) | ka (canine IL-4 (cIL-4); Table 3, association rate constant, cIL-4, ND = Binding Not Detected) | kdis (canine IL-4 (cIL-4); Table 3, dissociation rate constant, cIL-4, ND = Binding Not Detected) | ka (canine IL-13 (cIL-13)) | kdis (canine IL-13 (cIL-13)) | binding constant (KD) with cIL-4 (canine IL-4 (cIL-4); approximate values)
1 | cIL4Rα-IL13Rα1_ZW1-cFc: bispecific heterodimer of cIL-4Rα-cIgGB-Fc-ZW-A (SEQ ID NO: 18) and cIL-13Rα1-cIgGB-Fc-ZW-B (SEQ ID NO: 19) (protein, heterodimer) chain 1: VKVLHEPSCFSDYISTSVCQWKMDHPTNCSAELRLSYQLDFMGSENHTCVPENREDSVCVCSMPIDDAVEADVYQLDLWAGQQLLWSGSFQPSKHVKPRTPGNLTVHPNISHTWLLMWTNPYPTENHLHSELTYMVNVSNDNDPEDFKVYNVTYMGPTLRLAASTLKSGASYSARVRAWAQTYNSTWSDWSPSTTWLNYYEPWEQHLPPKRENGRVPRPPDCPKCPAPEMLGGPSVFIFPPKPKDTLLIARTPEVTCVVVDLDPEDPEVQISWFVDGKQMQTAKTQPREEQFNGTYRVVSVLPIGHQDWLKGKQFTCKVNNKALPSPIERTISKARGQAHQPSVYVYPPSREELSKNTVSLTCLIKDFFPPDIDVEWQSNGQQEPESKYRTTPPQLDEDGSYALVSKLSVDKSRWQRGDTFICAVMHEALHNHYTQESLSHSPGK chain 2: GGVAAPTETQPPVTNLSVSVENLCTVIWTWDPPEGASPNCTLRYFSHFDNKQDKKIAPETHRSKEVPLNERICLQVGSQCSTNESDNPSILVEKCTPPPEGDPESAVTELQCVWHNLSYMKCTWLPGRNTSPDTNYTLYYWHSSLGKILQCEDIYREGQHIGCSFALTNLKDSSFEQHSVQIVVKDNAGKIRPSFNIVPLTSHVKPDPPHIKRLFFQNGNLYVQWKNPQNFYSRCLSYQVEVNNSQTETNDIFYVEEAKCQNSEFEGNLEGTICFMVPGVLPDTLNTVRIRVRTNKLCYEDDKLWSNWSQAMSIGENTDPTPKRENGRVPRPPDCPKCPAPEMLGGPSVFIFPPKPKDTLLIARTPEVTCVVVDLDPEDPEVQISWFVDGKQMQTAKTQPREEQFNGTYRVVSVLPIGHQDWLKGKQFTCKVNNKALPSPIERTISKARGQAHQPSVYVLPPSREELSKNTVSLLCLIKDFFPPDIDVEWQSNGQQEPESKYLTWPPQLDEDGSYFLYSKLSVDKSRWQRGDTFICAVMHEALHNHYTQESLSHSPGK | about 20 fold | well above nanomolar concentrations | about 10,000 fold | 237000 M⁻¹ s⁻¹ | 0.00234 s⁻¹ | 94400 M⁻¹ s⁻¹ | 3.91e-05 s⁻¹ | –
2 | cIL4Rα-IL13Rα2_ZW1-cFc: bispecific heterodimer of cIL-4Rα-cIgGB-Fc-ZW-A (SEQ ID NO: 18) and cIL-13Rα2-cIgGB-Fc-ZW-B (SEQ ID NO: 20) (protein, heterodimer) chain 1: VKVLHEPSCFSDYISTSVCQWKMDHPTNCSAELRLSYQLDFMGSENHTCVPENREDSVCVCSMPIDDAVEADVYQLDLWAGQQLLWSGSFQPSKHVKPRTPGNLTVHPNISHTWLLMWTNPYPTENHLHSELTYMVNVSNDNDPEDFKVYNVTYMGPTLRLAASTLKSGASYSARVRAWAQTYNSTWSDWSPSTTWLNYYEPWEQHLPPKRENGRVPRPPDCPKCPAPEMLGGPSVFIFPPKPKDTLLIARTPEVTCVVVDLDPEDPEVQISWFVDGKQMQTAKTQPREEQFNGTYRVVSVLPIGHQDWLKGKQFTCKVNNKALPSPIERTISKARGQAHQPSVYVYPPSREELSKNTVSLTCLIKDFFPPDIDVEWQSNGQQEPESKYRTTPPQLDEDGSYALVSKLSVDKSRWQRGDTFICAVMHEALHNHYTQESLSHSPGK chain 2: SMLSNAEIKVNPPQDFEIVDPGYLGYLSLQWQPPLFPDNFKECTIEYELKYRNIDSENWKTIITKNLHYKDGFDLNKGIEAKINTLLPAQCTNGSEVRSSWAETTYWTSPQGNRETKIQDMDCVYYNWQYLVCSWKPGMGVHFDTNYQLFYWYEGLDHSAECTDYIKVNGKNMGCRFPYLESSDYKDFYICVNGSSESQPIRPSYFIFQLQNIVKPMPPDYLSLTVKNSEEINLKWNMPKGPIPAKCFIYEIEFTEDGTTWVTTTVENEIQITRTSNESQKLCFLVRSKVNIYCSDDGIWSEWSDEQCWKGDIWKETPKRENGRVPRPPDCPKCPAPEMLGGPSVFIFPPKPKDTLLIARTPEVTCVVVDLDPEDPEVQISWFVDGKQMQTAKTQPREEQFNGTYRVVSVLPIGHQDWLKGKQFTCKVNNKALPSPIERTISKARGQAHQPSVYVLPPSREELSKNTVSLLCLIKDFFPPDIDVEWQSNGQQEPESKYLTWPPQLDEDGSYFLYSKLSVDKSRWQRGDTFICAVMHEALHNHYTQESLSHSPGK | about 200 fold | well above nanomolar concentrations | – | – | – | 32600 M⁻¹ s⁻¹ | 0.000135 s⁻¹ | undetectable
3 | cIL-13Rα1-cFc: homodimer of canine IL-13Rα1 ECD, IgGB hinge region and IgGB cFc fusion protein, SEQ ID NO: 6 (protein, homodimer) GGVAAPTETQPPVTNLSVSVENLCTVIWTWDPPEGASPNCTLRYFSHFDNKQDKKIAPETHRSKEVPLNERICLQVGSQCSTNESDNPSILVEKCTPPPEGDPESAVTELQCVWHNLSYMKCTWLPGRNTSPDTNYTLYYWHSSLGKILQCEDIYREGQHIGCSFALTNLKDSSFEQHSVQIVVKDNAGKIRPSFNIVPLTSHVKPDPPHIKRLFFQNGNLYVQWKNPQNFYSRCLSYQVEVNNSQTETNDIFYVEEAKCQNSEFEGNLEGTICFMVPGVLPDTLNTVRIRVRTNKLCYEDDKLWSNWSQAMSIGENTDPTPKRENGRVPRPPDCPKCPAPEMLGGPSVFIFPPKPKDTLLIARTPEVTCVVVDLDPEDPEVQISWFVDGKQMQTAKTQPREEQFNGTYRVVSVLPIGHQDWLKGKQFTCKVNNKALPSPIERTISKARGQAHQPSVYVLPPSREELSKNTVSLTCLIKDFFPPDIDVEWQSNGQQEPESKYRTTPPQLDEDGSYFLYSKLSVDKSRWQRGDTFICAVMHEALHNHYTQESLSHSPGK | – | well above nanomolar concentrations | – | – | – | 58000 M⁻¹ s⁻¹ | 0.000312 s⁻¹ | –
